Measurements taken from patent publication US11344504 (MODERNATX, dated 2022).

Target: T1, OX40 receptor on mouse CD4+ T-cells (mouse, UniProt P47741 20-272)
T1 sequence (looked up): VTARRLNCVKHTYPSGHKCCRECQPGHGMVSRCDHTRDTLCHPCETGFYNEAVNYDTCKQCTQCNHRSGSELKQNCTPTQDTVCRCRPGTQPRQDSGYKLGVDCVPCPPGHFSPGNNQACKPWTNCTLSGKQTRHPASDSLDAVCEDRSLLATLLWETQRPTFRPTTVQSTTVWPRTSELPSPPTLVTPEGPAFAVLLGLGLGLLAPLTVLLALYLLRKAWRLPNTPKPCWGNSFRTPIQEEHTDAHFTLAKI
Assay: cell-based or functional assay

B1: murine OX40L polypeptide expressed on the surface of B16F10 cells treated with mOX40L_miR-122 mRNA (ligand)
chain: MEGEGVQPLDENLENGSRPRFKWKKTLRLVVSGIKGAGMLLCFIYVCLQLSSSPAKDPPIQRLRGAVTRCEDGQLFISSYKNEYQTMEVQNNSVVIKCDGLYIIYLKGSFFQEVKIDLHFREDHNPISIPMLNDGRRIVFTVVASLAFKDKVYLTVNAPDTLCEHLQINDGELIVVQLTPGYCAPEGSYHSTVNQVPL
- mouse IL-2 production by CD4+ T-cells co-cultured with OX40L-expressing B16F10 cells, fold over control (mock treated or non-translated mRNA): ~2 fold
